Laboratory results from publication PMC11563869.

Experiments:
[1] = target: GluA2-γ2_(FRET) (GluA2_(FRET) fused through a GGS linker to full-length mouse TARPγ2) (rat | mouse) (UniProt O88602); assay: FRET or BRET; single-molecule FRET between Alexa-555 and Alexa-647 on Cys467 of two subunits; receptors from detergent-solubilised HEK293T cells held on the slide by antibody (in situ immunoprecipitation); 1 mM Glu + 100 µM GYKI-52466
[2] = target: GluA2-γ2_(FRET) (GluA2_(FRET) fused through a GGS linker to full-length mouse TARPγ2) (rat | mouse) (UniProt O88602); assay: FRET or BRET; single-molecule FRET between Alexa-555 and Alexa-647 on Cys467 of two subunits; receptors from detergent-solubilised HEK293T cells held on the slide by antibody (in situ immunoprecipitation); 1 mM Glu + 100 µM CTZ

GluA2-γ2_(FRET) (GluA2_(FRET) fused through a GGS linker to full-length mouse TARPγ2) (from UniProt O88602 1-323) (receptor)
FRET efficiency (highest-occurring state, with GYKI-52466) [1]: 0.82 | FRET efficiency (highest-occurring state, with CTZ) [2]: 0.93
